# Assay: soluble on expression in E. coli; label from the status in PepcDB or PDB records
row,Sequence,soluble on expression in E. coli
1,MSLKPFGLFAICVAFAGCGDTSWWSKNDDPELKSEQIRKLIPSRVHDRQSWANDINDIMEKLKIPKTKDNVCSVVAIVDQESNFVANPVVAGLGEKAVKEVSTRLNEKFEEKLGTTIGGQVAGYFEDVLKNQPTPDDNYMSQMRRVRTEKDLDVLYRQIFDYMASHYHVSALTGAAKLVGQDIAEKMNPITTLGSMQVNIVYAKENKRVKLQSVNNLRDDLYTQYGGLYYGIHRLMLYQTSYDKPIYRFADYNSGMYSSRNAALQSMLNKLGDEQLTEDGDLLLYNKDGSIQSTRSSSEKALIKIFTLNNVLLTPNQIRTDLKQEKSQSFEQTPTYIAITKLYQKQTGKEAPYAMMPQVIISGPKLSRDYNTNWYASRVNGRYQTCMQRAKRIKEGHHHHHH,soluble
2,MDITITLDRSEQADYIYQQIYQKLKKEILSRNLLPHSKVPSKRELAENLKVSVNSVNSAYQQLLAEGYLYAIERKGFFVEELDMFSAEEHPPFALPDDLKEIHIDQSDWISFSHMSSDTDHFPIKSWFRCEQKAASRSYRTLGDMSHPQGIYEVRAAITRLISLTRGVKCRPEQMIIGAGTQVLMQLLTELLPKEAVYAMEEPGYRRMYQLLKNAGKQVKTIMLDEKGMSIAEITRQQPDVLVTTPSHQFPSGTIMPVSRRIQLLNWAAEEPRRYIIEDDYDSEFTYDVDSIPALQSLDRFQNVIYMGTFSKSLLPGLRISYMVLPPELLRAYKQRGYDLQTCSSLTQLTLQEFIESGEYQKHIKKMKQHYKEKRERLITALEAEFSGEVTVKGANAGLHFVTEFDTRRTEQDILSHAAGLQLEIFGMSRFNLKENKRQTGRPALIIGFARLKEEDIQEGVQRLFKAVYGHKKIPVTGD,not soluble
3,MGSDKIHHHHHHMKVVKFGGSSLASSQQLYKVLNIIKSDYTRRFVVVSAPGKRYEEDLKMTDALIQYYQNYINGKDIVKDQTWIINRYQEIISDLSLGSTIAEEITRSIEQLASLPIENNQFLYDCFLAAGEDNNAKLVATFFNQNDIPARYVHPNEAGIIVTKEPCNARIIPGSYDKIENLCLYNEVLVIPGFFGVTEDNQICTFSRGGSDITGSLIAAGIKADLYENFTDVDGIFAAHPGVVKNPHAIPELTYKEMRELAYAGFSVLHDEALLPAYRGRIPLVIKNTNNPQQPGTKIVLKHTRSNIAVTGIASDSRFASINVSKYLMNREVGFGRKVLQILEDLNISFEHMPTGIDDLSIVLREKELTPIKEQEILNYLTRKLEVDYVDIQHNLSTIVIVGENMKSQIGVTATATQALSREKINITMISQGSSEVSIMFVINSKDEKRAIKALYETFFQK,not soluble
4,MGSDKIHHHHHHMTDVTQGRIPHAVYIDPGLPEYRDNPLIASLPPIFDTKQVITKLRLKPLYDSAERNLDGRLRVHAIARLLNRFFQPLSHHLELEQKISLILRQGYLGRNPEQGSYHLHLQNGFKRIQEEDLDAFVFDQARSSANSLSLFGCSGCGKSVTINRILSVYEQAIFHPEHNITQLTYLKIECPVDGDLDELCLSFFNEVDRVLHTQYSTSHGRKKLGTKRLMASMCQIANLHALGVLIIDEVQNLNEAKSGGAEKMHNFFVSLVNTIGVPVIQVGTHRARKFFQRTFRAARRITGFGSLLWDRLPNDHQWRQLLKLLWQYQWLRSAEPINDELVGTMYDLTQGVMDIVVKLYVLAQVRAIVTGMERITSELLKQVYHDEFKPVHPMLAALRSNNPGLLEQYDDLLMPEIEARMLSMVSSLEQADTYVDRPEISTDKSKKLLVLLSQMDIPEDIAIPLVDRVISRHPELSVAALMHKVTEYTADVTAEPPKINRIKRTQWLELPTNDLRYLYASSDKNNVYQLFKNQGLIYDLKSVSNRTG,not soluble
5,MSRVRTKTVKKASRVLIEKYYTRMTNDFHNNKRVCDEVAIIGSKPLRNKIAGYITHLMRRIERGPVRGISIKLQEEERERRDNYMPEISTVDPSQLTSIKVDTDTSDMLKAAGFNLPNVTVEDQGKNKGK,not soluble
6,MVRVGMRAAPRVSLEALKAALGGLKLSEAKVYLITDWQDKRDQARYALLLHTGKKDLLVPDAFGPAFPGGEEALSELVGLLLAQGARRFYEAVVSPGEMTALLDLPPEELLKRVMAIANPTDPGIYLKRAA,soluble
7,HAIFERHENDLHCEVPISFATAALGGSIEVPTLEGRVTLKIPAETQTGKVFRLRSKGMKSVRGYGQGDLLCKVVVETPVNLSREQKELLNKLQDSLENAKGTH,not soluble
8,NIKNILSERVSAAMVAAGLPEGTNPAISLSNRPQFGDYQANGVMGAAKKLKTNPRELATKVVAELDLDGIASKIELAGPGFINIHLDESWLAAQLNEVAQDDFIGVAQRGTT,not soluble
9,MGSDKIHHHHHHMSEEKNTAIDLKNLKAGGFIKERGKDLFTVRLRVPGGRLPVGRLKKIAEVAEKYGQGMVHLSVRQSVELININFRDFDAVVAELGEGTQKVASCGARVRVPTACGGCEYNPNGLVDTQKSALEVDEKLFGIPTGHHKFKVGFAGCPFDCPKSATNDVGFQGAVWPVLSADHCIGCGLCAKSCTEDAIAMGDNGKPLFIPANCLYCGDCLKVCPTEAWRAGKKGYTVRIGGKWGRRPLVGTLFAEFLPEDQVVDFIAAVLGWYQEKAEGQGRIRLGDVIRAQGPEALLARLRERFPAFVVNATIAPQAIATQVGKEKQAHDNR,not soluble
10,MGSDKIHHHHHHMGTDSEKAIPPKVSRAAAEWLVELHSGQVGKEVREQWQAWRAAHPDHERAWQHIEMLGERLGGLSSSLAHATMAPRGSLRRRRAIKTLAMLLFAGGSAWVVQEKTPWWQLSADYSTGIGEQRRIELEDGTVVDLNSSSAINVAYTQQQRILMLLRGEMHVATASESATARPFLIASDQGSVRAFGTRFVVRQLTNEKDSPIKVGVLEGAVEVAPSEMPARVRLQAGEQLSFTRHMVTPIEPVIPHDTAWLQRMLVADDMPLGEFLAELSRYRKGSLGCDHSIKHLKVSGTYPLDDTDKVIEMLQQSLNLQVRMLTRYWVRLMPPAA,not soluble
11,MTKPIVFQNARIIDPSRTIDEIGTVIVENGLIIAAGKEALNQGIPEGAEIINAQNKAILPGLVDARVFVGEPGNESRETLASASQSAAAGGITSFLMMPNTNPVIDNIALVKFITHTAQEISSVNIYPVAAITQGFNGQEIAEFGLLKDAGAVAFSEGKKTLQNSSVMRRAMTYARDFDVPLMHETQDKDLIGQGVMNEGLLASWLGLSGIPREAEVIPLERDLRLAALTQTRYHAAQISTALSADALRLSKQRSEKISAGVSINHLSFNENDIGEYRTSFRLIPPLRTEEDRIAMIEAIKDGTVDIIVSSHDPQSLDKKNLPFSEAAIGAIGMETLLSAALRLYHNGTISLLRLTELLSTTPAKLFDLNAGTLRKGTHADLILVDLDEPWIVSPEKLYSRSKNTPFEKAHFQGRVLQTFVKGQSIFKLDQ,not soluble
12,MAHHHHHHMKELVSSFLNNLSQVSSELSCCKNKKFHVDNVSLCGIEDVLHNRDRSSLIDKEKINTLMELYKNENIYESYEEYDIDKYEKIKNNNILKNMGGNKLNVCNACLFCNNNNSQNHMNKNKNVSENINNVIDLDDEILIANFPFNSLRDVENLTYTNSEHTLNNKEYSYIKNSIDLDFDQQIKNQKKNNNSKNSSHLYNEIVKEGEYDNDDSPNFDEDSSQFKFSVLNNIKNNIHNTKDELTNNYNIIKNTLNQDYEKNIDQKEKHDIIVDNMVNSVDYQNDMDTNIKTKKKKKNQAYSNFYAKSDLPSSNIDEGSCKGCKASDTSSEFFSVASGMKPNN,not soluble
13,MCAALKRCAYRHKGKIMENTNIVTTEQQAPNTISASNAIFNVQALGQLTAFANLMADSQVTVPAHLAGKPADCMAIVMQAMQWGMNPYAVAQKTHLVNGVLGYEAQLVNAVIASSSAIHGRFHYRYGGDWERCTRTQEITRDKNGKNGKYTVTERVRGWTDEDEIGLFVQVGAILRGESEITWGEPLYLSGVVTRNSPLWVSNPKQQIAYLGVKYWARLYCPEVILGVYSPDEVEQREEREINPAPVQRMSVQEITSEVSTRTSAQESAANVDAVADDLRERIDTASSVDQAKAIRADIESQKALLGTALFTELKNKAVKRYYQVNAQNKVEAVINSIPNPGEPEAAEMFAKAESTLGAAKRHLGDELHDKYRVTLDDMKPEYIG,not soluble
14,MDCRLGCGACCIAPSISSPIPGMPKGKPAGVRCVQLNDDNLCKLFGKPERPKVCHDFKPCPVVCGKTNQEALDNITELEQLTLEHHHHHH,soluble
15,MEVCSTVTTKKLSSLAKLILFTIQKVSDASRHKLLTTLDPHLLAKRGKILRKSLNEAVSTSHSRITCRPSDHQDVRSSFISPVPLQLEYEFSCSSTPPRRSYATTVSKGRRSNGSHNRPLINKRQRQAYIRYNTLPKVRDSIWDRHVAAAVFPDVASSTGTMESCHVDRAAEEFIQSFYRQLRLQKWMMAQEV,not soluble
16,MSLTRDEIAKYYEAHKGQFVSGRKVRLGLVIFPPRDDADALAAQVKSGAMTFADLAARHSIGPNPQNGGVIGDLLWSDLSMEWRDTLSELKPGDVSRVFLVEGRKAVLQLVASNEGKGQALDDVAEEIENILREPKMQERLQEYIGQLRSRAVIDIREGHHHHHH,soluble
17,SMGAGGGGSAEQLDALVKKDKVVVFLKGTPEQPQCGFSNAVVQILRLHGVRDYAAYNVLDDPELRQGIKDYSNWPTIPQVYLNGEFVGGCDILLQMHQNGDLVEELKKLGIHSALLDE,soluble
18,MERMSDSADKPIDNDAEGVWSPDIEQSFQEALAIYPPCGRRKIILSDEGKMYGRNELIARYIKLRTGKTRTRKQVSSHIQVLARRKSRDFHSKLKDQTAKDKALQHMAAMSSAQIVSATAIHNKLGLPGIPRPTFPGGPGFWPGMIQTGQPGSSQDVKPFVQQAYPIQPAVTAPIPGFEPTSAPAPSVPAWQGRSIGTTKLRLVEFSAFLEQQRDPDSYNKHLFVHIGHANHSYSDPLLESVDIRQIYDKFPEKKGGLKELFGKGPQNAFFLVKFWADLNCNIQDDAGAFYGVSSQYESSENMTVTCSTKVCSFGKQVVEKVETEYARFENGRFVYRINRSPMCEYMINFIHKLKHLPEKYMMNSVLENFTILLVVTNRDTQETLLCMACVFEVSNSEHGAQHHIYRLVKD,soluble
19,MEDLTNVSSLLNMERARDKANEEGLALLQEEIDKMVETTELMTGNIQSLKNKIQILASEVEEEEERVKQMHQINSSGVLSLPELSQKTLKAPTLQKEILALIPNQNALLKDLDILHNSSQMKSMSTFIEEAYKKLDAS,soluble
20,MGSDKIHHHHHHMPEEKQKKSVLEKALKRIEENFGKGSIMILGDETQVQPVEVIPTGSLAIDIATGVGGYPRGRIVEIFGQESSGKTTLALHAIAEAQKMGGVAAFIDAEHALDPVYAKNLGVDLKSLLISQPDHGEQALEIVDELVRSGVVDLIVVDSVAALVPRAEIEGAMGDMQVGLQARLMSQALRKIAGSVNKSKAVVIFTNQIRMKIGVMFGSPETTTGGLALKFYATMRMEVRRGEPIKEGKDVIGNVISVKIVKNKVAPPFKTAQTYIIYGKGIDREYELFNIAVNEGIVDRKGSWYYYTTLKGEEVSLGQGSSNAVQFLKDNPEIAGEIERRIREKYGLLSVEKEEQRKEKKSSGEEAS,not soluble
21,MSSFDKNDERAQLMVPKSINEGKVVKLSQKTLVTKKIERQVVPEEKYIAGLDKIIEKDYFPHLKKMQAQKEYLEAVANKDINKIKELQMKFCSTGSVRTDRSFRTPITTRSTTEAPDVSSFDADTPGPSSASTSSAHDWMQSPMPFANEEGDNEALNRKRKKKKEETLTSYLNKYTSEDNASFEELAKVMREREDARRPWVYKAEEEHNKNLVTRQAIAAEADVQLALKHAVDADDNRPLNVDNWAYKAWNTVLFNPDGAALTPAEIADAARKQQTEINKRGTRFPDSGKLKPSDEAMTRAAVSHALANAGKVDFLGNEVTPANSFKLLETPNPNPDDMDSPLMTWGEIDGTPFRLDAPDVTEHSLPGAAPVFKIPEVPYREKIAQSMNDSIAAKYRDKRKVAMRAAEGAHRTPGFGSKRVSDKLAQLSPAAQKLATKKLGLKMLPAHKSPFASPKIMSNWSRPSSSKRSTTPGSAWSRGSTTPGSSWSQGAQTPGTPGIESMIRRKGDNVGPSTSAGAADRANAGDFF,not soluble
